Consider two molecules from patent publication EP3689907A1.

For assay [1], the target named is human IL-17A (human) (UniProt Q16552). The assay can be described thus: cell-based or functional assay.
Assay [2] has the same target. The assay can be described thus: SPR (Biacore T200), direct setup: IL-17A amine-coupled to CM5 chip, scFv as analyte. On the technique in general: SPR reads the build-up and loss of mass on a sensor chip optically.
Assay [3] shares this target. Description: IL-17A/IL-17RA competitive ELISA: biotinylated hIL-17A preincubated with scFv, binding to coated hIL-17RA. For orientation: ELISA stands for enzyme-linked immunosorbent assay.
Assay [4] has the same target. Description: SPR (Biacore T200), capture setup: biotinylated human IL-17A captured with Biotin-CAPture kit, scFv as analyte.
The target is the same in assay [5]. The assay can be described thus: IL-17A/IL-17RA competitive ELISA: biotinylated hIL-17A preincubated with scFv, binding to coated hIL-17RA; reference secukinumab.

Where a chain is given by its changes, count along the chain named.

The Kd is the equilibrium constant for the complex coming apart. Higher therefore signals weaker binding. The koff is a measure of how fast the partners let go of each other. Low readings indicate a long-lived complex, high ones a short-lived complex. What is called kon is the rate constant with which the complex forms. A low value points to slower complex formation. The IC50 is the concentration at which inhibition is half-maximal.

B1: PRO592 (scFv)
scFv: DIQMTQSPSSLSASVGDRVTITCQASESIYRYLSWYQQKPGKAPKLLIYLASTLTSGVPSRFSGSGSGTDFTLTISSLQPEDFATYYCQSNFGTASTTYYNTFGGGTKLTVLGGGGGSGGGGSGGGGSGGGGSEVQLVESGGGLVQPGGSLTLSCAASGFSFSGFYYMCWVRQAPGKGLEWIGCIDTGDGTTYYASWAKGRFTISRDNSKNTVYLQMNSLRAEDTAVYYCARDAAYGGYAYPAHGMDLWGPGTLVTVSS
Take B1: in the assay with human IL-17A (human) [1], the Neutralization of IL17A in HT-29 assay, rel. IC50* (IC50, secukinumab/IC50, Test Sample) worked out at 196; the Potency in HT-29 assay, IC50 [ng/mL] stood at 0.13 ng/mL; the Potency in HT-29 assay, rel. IC50* (IC50, secukinumab/IC50, Test Sample) amounted to 196. In addition, in the assay with human IL-17A (human) [2], the Kd came out at 0.0376 nM, the koff worked out at 4.07e-05 s⁻¹ and the kon was determined as 1.08e+06 M⁻¹ s⁻¹. The molecule further showed an IC50 with human IL-17A (human) [3] of 0.9 ng/mL. In the assay with human IL-17A (human) [4], this molecule returned a Kd of 0.367 nM, a koff of 0.000142 s⁻¹ and an on-rate constant (kon) of 387000 M⁻¹ s⁻¹. Also, the rel. IC50 (IC50, secukinumab/IC50, Test Sample) in the assay with human IL-17A (human) [5] is 40.9.

B2: PRO571 (scFv)
scFv: B1 scFv with T152R, P251Q
Consider B2, for which, in the assay with human IL-17A (human) [1], the Neutralization of IL17A in HT-29 assay, rel. IC50* (IC50, secukinumab/IC50, Test Sample) was determined as 191; the Potency in HT-29 assay, IC50 [ng/mL] came out at 0.1 ng/mL; the Potency in HT-29 assay, rel. IC50* (IC50, secukinumab/IC50, Test Sample) worked out at 191. Moreover, in the assay with human IL-17A (human) [2], the Kd stood at 0.0403 nM, the off-rate constant (koff) came out at 4.55e-05 s⁻¹ and the association rate constant (kon) came out at 1.13e+06 M⁻¹ s⁻¹. The IC50 with human IL-17A (human) [3] is 1.8 ng/mL. In the assay with human IL-17A (human) [4], this molecule showed a Kd of 0.119 nM, a koff of 0.000144 s⁻¹ and a kon of 1.21e+06 M⁻¹ s⁻¹. The molecule further yielded a rel. IC50 (IC50, secukinumab/IC50, Test Sample) with human IL-17A (human) [5] of 22.9.
